Measurements reported in the supplement of paper PMC11780869.

System: Bacillus subtilis
Experiment: cleaved RNA product abundance (RNA/gDNA barcode ratio) relative to median wild-type variant (ratio to wild type); higher = more accumulation of the downstream cleavage product
Conditions: cleavage site: cggR-gapA (positions -7 to +36 mutated)
Description: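 MPRA in B. subtilis. Mutagenized RNase Y cleavage-site regions (9% mutation rate) were inserted into a barcoded reporter mRNA (truncated aprE or tetM). Cells were grown in LB at 37°C to OD600 0.3. The cleaved RNA isoform was gel-purified and its barcodes counted; the RNA:gDNA barcode ratio was normalised to the median wild-type variant, and the median over barcodes is reported per variant. The printed sequence is the variable window only; the reporter flanks are not printed.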

[1] = experiment (reporter, strain, medium): exp 2b: truncated aprE reporter, strain BJT200
[2] = experiment (reporter, strain, medium): exp 4a: truncated aprE reporter, strain BJT201 with 2% xylose (RNase J1 expressed)

Sequence | cleaved RNA product abundance [1] | cleaved RNA product abundance [2] | cleaved RNA product abundance (experiment (reporter, strain, medium): exp 6: tetM reporter, strain 168)
ACAGACGAAGGAGCCGCAAAGAAGTAATTAAGGGATGAACAATCCCTCAATATAAATATCTCTCACTTATTTAAA | 0.181 |  | 
ACAGACGAAGGAGCCGCAAAGAAGTAATTAAGGGATGAATAAACCCTCAATATAAATATCTCTCACTTATTTAAA | 0.166 | 0.198 | 
ACAGACGAAGGAGCCGCAAAGAAGTAATTAAGGGATGAATAAACCCTCATTATAAATATCTCTCACTTATTTAAA |  | 0.148 | 
ACAGACGAAGGAGCCGCAAAGAAGTAATTAAGGGATGAATAACCCCTCAATATAAATATCTCTCACTTATTTAAA |  | 0.158 | 
ACAGACGAAGGAGCCGCAAAGAAGTAATTAAGGGATGAATAAGCCCTCAATATAAATATCTCTCACTTATTTAAA |  | 0.149 | 
ACAGACGAAGGAGCCGCAAAGAAGTAATTAAGGGATGAATAATACCTCAATATAAATATCTCTCACTTATTTAAA | 0.115 | 0.141 | 
ACAGACGAAGGAGCCGCAAAGAAGTAATTAAGGGATGAATAATCACTCAATATAAATATCTCTCACTTATTTAAA |  | 0.109 | 
ACAGACGAAGGAGCCGCAAAGAAGTAATTAAGGGATGAATAATCCATCAATATAAATATCTCTCACTTATTTAAA | 0.148 | 0.183 | 
ACAGACGAAGGAGCCGCAAAGAAGTAATTAAGGGATGAATAATCCCTAAATATAAATATCTCTCACTTATTTAAA |  | 0.234 | 
ACAGACGAAGGAGCCGCAAAGAAGTAATTAAGGGATGAATAATCCCTCAAAATAAATATCTCTCACTTATTTAAA | 0.16 | 0.215 | 
ACAGACGAAGGAGCCGCAAAGAAGTAATTAAGGGATGAATAATCCCTCAACATAAATATCTCTCACTTATTTAAA |  | 0.21 | 
ACAGACGAAGGAGCCGCAAAGAAGTAATTAAGGGATGAATAATCCCTCAATATAAAAATCTCTCACTTATTTAAA |  | 0.282 | 
ACAGACGAAGGAGCCGCAAAGAAGTAATTAAGGGATGAATAATCCCTCAATATAAACATCTCTCACTTATTTAAA |  | 0.264 | 
ACAGACGAAGGAGCCGCAAAGAAGTAATTAAGGGATGAATAATCCCTCAATATAAATAGCTCTCACTTATTTAAA |  | 0.15 | 
ACAGACGAAGGAGCCGCAAAGAAGTAATTAAGGGATGAATAATCCCTCAATATAAATATCTCTCACTTATTTAAA | 0.241 | 0.333 | 0.32
ACAGACGAAGGAGCCGCAAAGAAGTAATTAAGGGATGAATAATCCCTCAATATAAATTTCTCTCACTTATTTAAA |  | 0.122 | 
ACAGACGAAGGAGCCGCAAAGAAGTAATTAAGGGATGAATAATCCCTCAATATAACTATCTCTCACTTATTTAAA |  | 0.215 | 
ACAGACGAAGGAGCCGCAAAGAAGTAATTAAGGGATGAATAATCCCTCAATATAAGTATCTCTCACTTATTTAAA | 0.119 |  | 
ACAGACGAAGGAGCCGCAAAGAAGTAATTAAGGGATGAATAATCCCTCAATATAATTATCTCTCACTTATTTAAA | 0.151 | 0.199 | 
ACAGACGAAGGAGCCGCAAAGAAGTAATTAAGGGATGAATAATCCCTCAATATAGATATCTCTCACTTATTTAAA |  | 0.303 | 
ACAGACGAAGGAGCCGCAAAGAAGTAATTAAGGGATGAATAATCCCTCAATATATATATCTCTCACTTATTTAAA | 0.2 | 0.278 | 
ACAGACGAAGGAGCCGCAAAGAAGTAATTAAGGGATGAATAATCCCTCAATGTAAATATCTCTCACTTATTTAAA |  | 0.114 | 
ACAGACGAAGGAGCCGCAAAGAAGTAATTAAGGGATGAATAATCCCTCACTATAAATATCTCTCACTTATTTAAA | 0.135 | 0.168 | 

Sequence | cleaved RNA product abundance [1] | cleaved RNA product abundance [2] | cleaved RNA product abundance (experiment (reporter, strain, medium): exp 6: tetM reporter, strain 168)
ACAGACGAAGGAGCCGCAAAGAAGTAATTAAGGGATGAATAATCCCTCAGTATAAATATCTCTCACTTATTTAAA |  | 0.0878 | 
ACAGACGAAGGAGCCGCAAAGAAGTAATTAAGGGATGAATAATCCCTCATTATAAATATCTCTCACTTATTTAAA |  | 0.278 | 
ACAGACGAAGGAGCCGCAAAGAAGTAATTAAGGGATGAATAATCCCTCCATATAAATATCTCTCACTTATTTAAA |  | 0.0749 | 
ACAGACGAAGGAGCCGCAAAGAAGTAATTAAGGGATGAATAATCCCTCGATATAAATATCTCTCACTTATTTAAA | 0.102 | 0.155 | 
ACAGACGAAGGAGCCGCAAAGAAGTAATTAAGGGATGAATAATCCCTCTATATAAATATCTCTCACTTATTTAAA |  | 0.193 | 
ACAGACGAAGGAGCCGCAAAGAAGTAATTAAGGGATGAATAATCCCTGAATATAAATATCTCTCACTTATTTAAA |  | 0.253 | 
ACAGACGAAGGAGCCGCAAAGAAGTAATTAAGGGATGAATAATCCGTCAATATAAATATCTCTCACTTATTTAAA |  | 0.179 | 
ACAGACGAAGGAGCCGCAAAGAAGTAATTAAGGGATGAATAATCCTTCAATATAAATATCTCTCACTTATTTAAA | 0.188 | 0.187 | 
ACAGACGAAGGAGCCGCAAAGAAGTAATTAAGGGATGAATAATCGCTCAATATAAATATCTCTCACTTATTTAAA |  | 0.0828 | 
ACAGACGAAGGAGCCGCAAAGAAGTAATTAAGGGATGAATAATCTCTCAATATAAATATCTCTCACTTATTTAAA | 0.213 | 0.244 | 
ACAGACGAAGGAGCCGCAAAGAAGTAATTAAGGGATGAATAATGCCTCAATATAAATATCTCTCACTTATTTAAA |  | 0.164 | 
ACAGACGAAGGAGCCGCAAAGAAGTAATTAAGGGATGAATAATTCCTCAATATAAATATCTCTCACTTATTTAAA |  | 0.263 | 
ACAGACGAAGGAGCCGCAAAGAAGTAATTAAGGGATGAATACTCCCTCAATATAAATATCTCTCACTTATTTAAA |  | 0.324 | 
ACAGACGAAGGAGCCGCAAAGAAGTAATTAAGGGATGAATATTCCCTCAATATAAATATCTCTCACTTATTTAAA |  | 0.293 | 
ACAGACGAAGGAGCCGCAAAGAAGTAATTAAGGGATGAATCATCCCTCAATATAAATATCTCTCACTTATTTAAA |  | 0.314 | 
ACAGACGAAGGAGCCGCAAAGAAGTAATTAAGGGATGAATGATCCCTCAATATAAATATCTCTCACTTATTTAAA | 0.134 |  | 
ACAGACGAAGGAGCCGCAAAGAAGTAATTAAGGGATGAATTATCCCTCAATATAAATATCTCTCACTTATTTAAA |  | 0.355 | 
ACAGACGAAGGAGCCGCAAAGAAGTAATTAAGGGATGACTAATCCCTCAATATAAATATCTCTCACTTATTTAAA | 0.123 | 0.289 | 
ACAGACGAAGGAGCCGCAAAGAAGTAATTAAGGGATGCATAATCCCTCAATATAAATATCTCTCACTTATTTAAA | 0.186 | 0.288 | 
ACAGACGAAGGAGCCGCAAAGAAGTAATTAAGGGATGTATAATCCCTCAATATAAATATCTCTCACTTATTTAAA |  | 0.346 | 
ACAGACGAAGGAGCCGCAAAGAAGTAATTAAGGGATTAATAATCCCTCAATATAAATATCTCTCACTTATTTAAA |  | 0.379 | 
ACAGACGAAGGAGCCGCAAAGAAGTAATTAAGGGCTGAATAATCCCTCAATATAAATATCTCTCACTTATTTAAA | 0.161 | 0.165 | 
ACAGACGAAGGAGCCGCAAAGAAGTAATTAAGGGGTGAATAATCCCTCAATATAAATATCTCTCACTTATTTAAA |  | 0.308 | 
